Columns and labels:
[1] = target: T1, KRAS G12D (same sequence in NRAS and HRAS G12D) peptide on HLA-A*11:01 (human); experiment: cytokine release
T1 peptide: VVVGADGVGK

[2] = target: T2, KRAS G12V (same sequence in NRAS and HRAS G12V) peptide on HLA-A*11:01 (human); experiment: cytokine release
T2 peptide: VVVGAVGVGK

[3] = target: T3, KRAS G12V (same sequence in NRAS and HRAS G12V) peptide on HLA-A*11:01 (human); experiment: cytokine release
T3 peptide: VVGAVGVGK

[4] = target: T4, KRAS G12D (same sequence in NRAS and HRAS G12D) peptide on HLA-A*11:01 (human); experiment: cytokine release
T4 peptide: VVGADGVGK

[5] = target: T5, KRAS G12V peptide on HLA-A*02:01 (human); experiment: multimer staining
T5 peptide: KLVVVGAVGV

B1: A11 KRAS TCR_141_7 (TCR, V domains shown)
Valpha: AQSVTQPDIHITVSEGASLELRCNYSYGATPYLFWYVQSPGQGLQLLLKYFSGDTLVQGIKGFEAEFKRSQSSFNLRKPSVHWSDAAEYFCAVTGGGNKLTFGTGTQLKVEL
Vbeta: DTGVSQDPRHKITKRGQNVTFRCDPISEHNRLYWYRQTLGQGPEFLTYFQNEAQLEKSRLLSDRFSAERPKGSFSTLEIQRTEQGDSAMYLCASSLAGETGELFFGEGSRLTVL
Does B1 bind [1]?
Result: recognises

B2: TCR17 (TCR, V domains shown)
Valpha: KVTQAQTEISVVEKEDVTLDCVYETRDTTYYLFWYKQPPSGELVFLIRRNSFDEQNEISGRYSWNFQKSTSSFNFTITASQVVDSAVYFCALSEVHASGGSYIPTFGRGTSLIVHP
Vbeta: DVKVTQSSRYLVKRTGEKVFLECVQDMDHENMFWYRQDPGLGLRLIYFSYDVKMKEKGDIPEGYSVSREKKERFSLILESASTNQTSMYLCASSLGAGQHNSPLHFGNGTRLTVT
What does the source list for B2?
binding result [2]: no recognition; binding result [3]: no recognition; binding result [4]: no recognition; binding result [1]: recognises

B3: A2 KRAS TCR03 (TCR, V domains shown)
Valpha: GEDVEQSLFLSVREGDSSVINCTYTDSSSTYLYWYKQEPGAGLQLLTYIFSNMDMKQDQRLTVLLNKKDKHLSLRIADTQTGDSAIYFCAERTDTDKLIFGTGTRLQVFP
Vbeta: GAGVSQTPSNKVTEKGKYVELRCDPISGHTALYWYRQSLGQGPEFLIYFQGTGAADDSGLPNDRFFAVRPEGSVSTLKIQRTERGDSAVYLCASSPLAANEQFFGPGTRLTVL
Does B3 bind [5]?
Result: recognises

B4: TCR15 (TCR, V domains shown)
Valpha: QKEVEQNSGPLSVPEGAIASLNCTYSDRGSQSFFWYRQYSGKSPELIMFIYSNGDKEDGRFTAQLNKASQYVSLLIRDSQPSDSATYLCAVNARGNMLTFGGGTRLMVKP
Vbeta: SQTIHQWPATLVQPVGSPLSLECTVEGTSNPNLYWYRQAAGRGLQLLFYSVGIGQISSEVPQNLSASRPQDRQFILSSKKLLLSDSGFYLCAWTLTGFGQPQHFGDGTRLSIL
Does B4 bind [2]?
Result: recognises

Does B4 bind [3]?
Result: no recognition

Does B4 bind [4]?
Result: no recognition

Does B4 bind [1]?
Result: no recognition

B5: A11 KRAS TCR_129_2 (TCR, V domains shown)
Valpha: SQQGEEDPQALSIQEGENATMNCSYKTSINNLQWYRQNSGRGLVHLILIRSNEREKHSGRLRVTLDTSKKSSSLLITASRAADTASYFCASSGGGADGLTFGKGTHLIIQP
Vbeta: KAGVTQTPRYLIKTRGQQVTLSCSPISGHRSVSWYQQTPGQGLQFLFEYFSETQRNKGNFPGRFSGRQFSNSRSEMNVSTLELGDSALYLCASSLGGAGETQYFGPGTRLLVL
Does B5 bind [1]?
Result: recognises

B6: TCR20 (TCR, V domains shown)
Valpha: DAKTTQPPSMDCAEGRAANLPCNHSTISGNEYVYWYRQIHSQGPQYIIHGLKNNETNEMASLIITEDRKSSTLILPHATLRDTAVYYCIVRLNSGNTPLVFGKGTRLSVIA
Vbeta: EAGVAQSPRYKIIEKRQSVAFWCNPISGHATLYWYQQILGQGPKLLIQFQNNGVVDDSQLPKDRFSAERLKGVDSTLKIQPAKLEDSAVYLCASSPTFPAGDRDTQYFGPGTRLTVL
What does the source list for B6?
binding result [2]: recognises; binding result [3]: recognises; binding result [4]: no recognition; binding result [1]: no recognition

B7: A11 KRAS TCR_220_12 (TCR, V domains shown)
Valpha: AQSVTQLDSHVSVSEGTPVLLRCNYSSSYSPSLFWYVQHPNKGLQLLLKYTSAATLVKGINGFEAEFKKSETSFHLTKPSAHMSDAAEYFCVVSDMVSGYALNFGKGTSLLVTP
Vbeta: DIYQTPRYLVIGTGKKITLECSQTMGHDKMYWYQQDPGMELHLIHYSYGVNSTEKGDLSSESTVSRIRTEHFPLTLESARPSHTSQYLCASSESLYNEQFFGPGTRLTVL
Does B7 bind [2]?
Result: no recognition

Does B7 bind [3]?
Result: no recognition

Does B7 bind [4]?
Result: no recognition

Does B7 bind [1]?
Result: recognises

B8: A11_TCR22 (TCR, V domains shown)
Valpha: QKEVEQDPGPLSVPEGAIVSLNCTYSNSAFQYFMWYRQYSRKGPELLMYTYSSGNKEDGRFTAQVDKSSKYISLFIRDSQPSDSATYLCAMSAGAAGNKLTFGGGTRVLVKP
Vbeta: EADIYQTPRYLVIGTGKKITLECSQTMGHDKMYWYQQDPGMELHLIHYSYGVNSTEKGDLSSESTVSRIRTEHFPLTLESARPSHTSQYLCASSQGLYNEQFFGPGTRLTVL
Does B8 bind [2]?
Result: no recognition

Does B8 bind [3]?
Result: no recognition

Does B8 bind [4]?
Result: no recognition

Does B8 bind [1]?
Result: recognises

B9: TCR21 (TCR, V domains shown)
Valpha: QKEVEQDPGPLSVPEGAIVSLNCTYSNSAFQYFMWYRQYSRKGPELLMYTYSSGNKEDGRFTAQVDKSSKYISLFIRDSQPSDSATYLCAMSGGNAGNMLTFGGGTRLMVKP
Vbeta: EADIYQTPRYLVIGTGKKITLECSQTMGHDKMYWYQQDPGMELHLIHYSYGVNSTEKGDLSSESTVSRIRTEHFPLTLESARPSHTSQYLCASSVGLYNEQFFGPGTRLTVL
Which results are given for B9?
binding result [2]: no recognition; binding result [3]: no recognition; binding result [4]: no recognition; binding result [1]: recognises

B10: A11_TCR16 (TCR, V domains shown)
Valpha: KDQVFQPSTVASSEGAVVEIFCNHSVSNAYNFFWYLHFPGCAPRLLVKGSKPSQQGRYNMTYERFSSSLLILQVREADAAVYYCVLNRDDKIIFGKGTRLHILP
Vbeta: DAGVIQSPRHEVTEMGQEVTLRCKPISGHDYLFWYRQTMMRGLELLIYFNNNVPIDDSGMPEDRFSAKMPNASFSTLKIQPSEPRDSAVYFCASSRLGPYNEQFFGPGTRLTVL
Does B10 bind [2]?
Result: no recognition

Does B10 bind [3]?
Result: no recognition

Does B10 bind [4]?
Result: no recognition

Does B10 bind [1]?
Result: recognises

B11: TCR19 (TCR, V domains shown)
Valpha: DQQVKQNSPSLSVQEGRISILNCDYTNSMFDYFLWYKKYPAEGPTFLISISSIKDKNEDGRFTVFLNKSAKHLSLHIVPSQPGDSAVYFCAASANNNDMRFGAGTRLTVKP
Vbeta: DAGVIQSPRHEVTEMGQEVTLRCKPISGHDYLFWYRQTMMRGLELLIYFNNNVPIDDSGMPEDRFSAKMPNASFSTLKIQPSEPRDSAVYFCASSPTGGGMLGQYFGPGTRLTVL
Does B11 bind [3]?
Result: recognises

Does B11 bind [4]?
Result: no recognition

Does B11 bind [1]?
Result: no recognition

B12: A11 KRAS TCR_129_8 (TCR, V domains shown)
Valpha: DQQVKQNSPSLSVQEGRISILNCDYTNSMFDYFLWYKKYPAEGPTFLISISSIKDKNEDGRFTVFLNKSAKHLSLHIVPSQPGDSAVYFCAANTNAGKSTFGDGTTLTVKP
Vbeta: DTGVSQDPRHKITKRGQNVTFRCDPISEHNRLYWYRQTLGQGPEFLTYFQNEAQLEKSRLLSDRFSAERPKGSFSTLEIQRTEQGDSAMYLCASSTGTAEQYFGPGTRLTVT
Does B12 bind [2]?
Result: recognises

Does B12 bind [3]?
Result: recognises

B13: TCR18 (TCR, V domains shown)
Valpha: SQQGEEDPQALSIQEGENATMNCSYKTSINNLQWYRQNSGRGLVHLILIRSNEREKHSGRLRVTLDTSKKSSSLLITASRAADTASYFCATDEGGGADGLTFGKGTHLIIQP
Vbeta: DSGVTQTPKHLITATGQRVTLRCSPRSGDLSVYWYQQSLDQGLQFLIQYYNGEERAKGNILERFSAQQFPDLHSELNLSSLELGDSALYFCASSVTWGPYEQYFGPGTRLTVT
Does B13 bind [2]?
Result: no recognition

Does B13 bind [3]?
Result: no recognition

Does B13 bind [4]?
Result: no recognition

Does B13 bind [1]?
Result: no recognition

B14: TCR14 (TCR, V domains shown)
Valpha: SQQGEEDPQALSIQEGENATMNCSYKTSINNLQWYRQNSGRGLVHLILIRSNEREKHSGRLRVTLDTSKKSSSLLITASRAADTASYFCATDEGGGADGLTFGKGTHLIIQP
Vbeta: DSGVTQTPKHLITATGQRVTLRCSPRSGDLSVYWYQQSLDQGLQFLIQYYNGEERAKGNILERFSAQQFPDLHSELNLSSLELGDSALYFCASTHGRDSTDTQYFGPGTRLTVL
What does the source list for B14?
binding result [2]: no recognition; binding result [3]: recognises; binding result [4]: no recognition; binding result [1]: no recognition

B15: A11 KRAS TCR_141_6 (TCR, V domains shown)
Valpha: SQQGEEDPQALSIQEGENATMNCSYKTSINNLQWYRQNSGRGLVHLILIRSNEREKHSGRLRVTLDTSKKSSSLLITASRAADTASYFCATDVFQGAQKLVFGQGTRLTINP
Vbeta: EAGVAQSPRYKIIEKRQSVAFWCNPISGHATLYWYQQILGQGPKLLIQFQNNGVVDDSQLPKDRFSAERLKGVDSTLKIQPAKLEDSAVYLCASSIETSYEQYFGPGTRLTVT
Does B15 bind [2]?
Result: recognises

Does B15 bind [3]?
Result: recognises

B16: A11 KRAS TCR_220_21 (TCR, V domains shown)
Valpha: GEDVEQSLFLSVREGDSSVINCTYTDSSSTYLYWYKQEPGAGLQLLTYIFSNMDMKQDQRLTVLLNKKDKHLSLRIADTQTGDSAIYFCAEPIIGGNTPLVFGKGTRLSVIA
Vbeta: GAGVSQSPRYKVAKRGQDVALRCDPISGHVSLFWYQQALGQGPEFLTYFQNEAQLDKSGLPSDRFFAERPEGSVSTLKIQRTQQEDSAVYLCASSSEGLAGGPTAGELFFGEGSRLTVL
Does B16 bind [2]?
Result: recognises

Does B16 bind [4]?
Result: no recognition

Does B16 bind [1]?
Result: no recognition

B17: TCR23 (TCR, V domains shown)
Valpha: TQLLEQSPQFLSIQEGENLTVYCNSSSVFSSLQWYRQEPGEGPVLLVTVVTGGEVKKLKRLTFQFGDARKDSSLHITAAQPGDTGLYLCAGVREAGGTSYGKLTFGQGTILTVHP
Vbeta: DAEITQSPRHKITETGRQVTLACHQTWNHNNMFWYRQDLGHGLRLIHYSYGVQDTNKGEVSDGYSVSRSNTEDLPLTLESAASSQTSVYFCASSEYVGAHEQYFGPGTRLTVT
Does B17 bind [2]?
Result: recognises

Does B17 bind [3]?
Result: no recognition

Does B17 bind [4]?
Result: no recognition

Does B17 bind [1]?
Result: no recognition

B18: A11 KRAS TCR_141_1 (TCR, V domains shown)
Valpha: AQTVTQSQPEMSVQEAETVTLSCTYDTSESDYYLFWYKQPPSRQMILVIRQEAYKQQNATENRFSVNFQKAAKSFSLKISDSQLGDAAMYFCALKTSYDKVIFGPGTSLSVIP
Vbeta: NAGVTQTPKFQVLKTGQSMTLQCAQDMNHEYMSWYRQDPGMGLRLIHYSVGAGITDQGEVPNGYNVSRSTTEDFPLRLLSAAPSQTSVYFCASSLGAGEWKSPLHFGNGTRLTVT
Does B18 bind [2]?
Result: no recognition

Does B18 bind [3]?
Result: no recognition

Does B18 bind [4]?
Result: no recognition

Does B18 bind [1]?
Result: recognises
